Data published in the supplement of paper PMC7877785.
± gives the uncertainty stated by the source.

Assay: self-splicing fitness, log relative to wild type (ln ratio); higher = more splicing; Tetrahymena group I intron in knt gene, E. coli kanamycin selection, DiMSum; sequences stand for … in CUCUCU…GGAGGGAAAAGUUAUCAGGCAUGCACCUGGUAGCUAGUCUUUAAACCAAUAGAUUGCAUCGGUUUAAAAGGCAAGACCGUCAAAUUGCGGGAAAGGGGUCAACAGCCGUUCAGUACCAAGUCUCAGGGGAAACUUUGAGAUGGCCUUGCAAAGGGUAUGGUAAUAAGCUGACGGACAUGGUCCUAACCACGCAGCCAAGUCCUAAGUCAACAGAUCUUCUGUUGAUAUGGAUGCAGUUCACAGACUAAAUGUCGGUCGGGGAAGAUGUAUUCUUCUCAUAAGAUAUAGUCGGACCUCUCCUUAAUGGGAGCUAGCGGAUGAAGUGAUGCAACACUGGAGCCGCUGGGAACUAAUUUGUAUGCGAAAGUAUAUUGAUUAGUUUUGGAGUACUCGUGGUCG
How it was run: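 Fitness was computed with DiMSum as the error-weighted combination of replicate fold changes, kanamycin versus none, each normalised to wild type. The library randomised all eight intron nucleotides of the P1ex region, with the intron placed in the knt kanamycin-resistance gene on pET-22b(+) in E. coli BL21(DE3). Six replicate transformations were grown overnight at 37°C or 30°C on LB agar with or without 25 μg/mL kanamycin, plus 100 μg/mL carbenicillin, 50 μM IPTG and 0.2% rhamnose. Pooled colonies were amplicon-sequenced on an Illumina HiSeq 2500.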

| Sequence | self-splicing fitness (ln) (30 °C) | self-splicing fitness (ln) (37 °C) |
| --- | --- | --- |
| GUAAAGCAAUAUUACGUACA | -0.0825 ± 0.078 | 0.111 ± 0.09 |
| GUAAAGCAAUAUUACGUCGA | -0.947 ± 0.088 | -0.407 ± 0.1 |
| GUAAAGCAAUAUUACGUGAA | -1.96 ± 0.1 | -1.39 ± 0.12 |
| GUAAAGCAAUAUUACGUGAU | -2.02 ± 0.085 | -1.52 ± 0.12 |
| GUAAAGCAAUAUUACGUUAA | -2 ± 0.093 | -1.69 ± 0.14 |
| GUACAGCAAUAUUACGAAAA | -1.66 ± 0.19 | -2.31 ± 0.25 |
| GUACAGCAAUAUUACGAAAC | -1.74 ± 0.1 | -0.531 ± 0.12 |
| GUACAGCAAUAUUACGAAAU | -2.34 ± 0.12 | -0.906 ± 0.11 |
| GUACAGCAAUAUUACGAACU | -0.664 ± 0.15 | -1.24 ± 0.2 |
| GUACAGCAAUAUUACGAAUU | -2.29 ± 0.16 | -1.69 ± 0.15 |
| GUACAGCAAUAUUACGACUG | -1.83 ± 0.13 | -1.33 ± 0.14 |
| GUACAGCAAUAUUACGAGUC | -1.88 ± 0.085 | -1.53 ± 0.096 |
| GUACAGCAAUAUUACGAUCU | -0.934 ± 0.087 | -0.527 ± 0.094 |
| GUACAGCAAUAUUACGAUUA | -0.7 ± 0.095 | -0.556 ± 0.1 |
| GUACAGCAAUAUUACGCAGA | – | -2.72 ± 0.2 |
| GUACAGCAAUAUUACGCAUG | -2.26 ± 0.075 | -1.03 ± 0.08 |
| GUACAGCAAUAUUACGCCAC | -1.49 ± 0.39 | – |
| GUACAGCAAUAUUACGCGUU | -2.61 ± 0.15 | -1.35 ± 0.14 |
| GUACAGCAAUAUUACGGACA | -2.13 ± 0.12 | -1.13 ± 0.1 |
| GUACAGCAAUAUUACGGAGG | -3.92 ± 0.34 | -2.92 ± 0.44 |
| GUACAGCAAUAUUACGGCCG | -1.89 ± 0.1 | -0.534 ± 0.13 |
| GUACAGCAAUAUUACGGGCG | -2.46 ± 0.18 | -1.11 ± 0.15 |
| GUACAGCAAUAUUACGGGUC | -4.33 ± 0.31 | -2.79 ± 0.33 |
| GUACAGCAAUAUUACGGGUG | -2.02 ± 0.098 | -1.67 ± 0.13 |
| GUACAGCAAUAUUACGGGUU | -3.13 ± 0.09 | -2.22 ± 0.099 |

| Sequence | self-splicing fitness (ln) (30 °C) | self-splicing fitness (ln) (37 °C) |
| --- | --- | --- |
| GUACAGCAAUAUUACGGUGU | -3.2 ± 0.14 | -1.51 ± 0.13 |
| GUACAGCAAUAUUACGGUUU | -0.599 ± 0.044 | -0.0338 ± 0.06 |
| GUACAGCAAUAUUACGUAAG | -1.08 ± 0.096 | -0.465 ± 0.11 |
| GUACAGCAAUAUUACGUAGA | -2.65 ± 0.11 | -1.35 ± 0.14 |
| GUACAGCAAUAUUACGUAGU | -2.84 ± 0.11 | -2.08 ± 0.14 |
| GUACAGCAAUAUUACGUCCU | -1.4 ± 0.12 | -0.91 ± 0.11 |
| GUACAGCAAUAUUACGUGCU | -3.17 ± 0.18 | -3.14 ± 0.24 |
| GUACAGCAAUAUUACGUGUC | -3.39 ± 0.2 | -2.06 ± 0.2 |
| GUACAGCAAUAUUACGUUGG | -3.39 ± 0.21 | -2.16 ± 0.15 |
| GUAGAGCAAUAUUACGACCU | -1.39 ± 0.15 | -0.95 ± 0.2 |
| GUAGAGCAAUAUUACGACGC | -0.313 ± 0.16 | 0.929 ± 0.22 |
| GUAGAGCAAUAUUACGAGAA | -3.8 ± 0.34 | -1.72 ± 0.47 |
| GUAGAGCAAUAUUACGAUGA | -1.5 ± 0.1 | -0.479 ± 0.12 |
| GUAGAGCAAUAUUACGAUGU | -1.04 ± 0.18 | -0.121 ± 0.19 |
| GUAGAGCAAUAUUACGCCGU | -1.3 ± 0.33 | -0.778 ± 0.45 |
| GUAGAGCAAUAUUACGCGAU | -3.22 ± 0.2 | 0.14 ± 0.16 |
| GUAGAGCAAUAUUACGCGCC | -3.54 ± 0.29 | -1.67 ± 0.38 |
| GUAGAGCAAUAUUACGGAAC | -1.59 ± 0.3 | – |
| GUAGAGCAAUAUUACGGACU | -1.4 ± 0.18 | -0.459 ± 0.23 |
| GUAGAGCAAUAUUACGGAUU | -2.61 ± 0.24 | -0.513 ± 0.2 |
| GUAGAGCAAUAUUACGGCAA | -2.01 ± 0.13 | -0.535 ± 0.21 |
| GUAGAGCAAUAUUACGGCAC | -0.941 ± 0.4 | – |
| GUAGAGCAAUAUUACGGCCC | -1.36 ± 0.29 | -0.935 ± 0.32 |
| GUAGAGCAAUAUUACGGGAA | -3.56 ± 0.32 | -2.35 ± 0.26 |
| GUAGAGCAAUAUUACGGGGU | -3.18 ± 0.2 | -2.07 ± 0.15 |

| Sequence | self-splicing fitness (ln) (30 °C) | self-splicing fitness (ln) (37 °C) |
| --- | --- | --- |
| GUAGAGCAAUAUUACGGGUG | -2.72 ± 0.22 | -2.93 ± 0.28 |
| GUAGAGCAAUAUUACGUACC | -3.88 ± 0.47 | -1.59 ± 0.37 |
| GUAGAGCAAUAUUACGUCCA | -2.45 ± 0.28 | -0.739 ± 0.34 |
| GUAGAGCAAUAUUACGUUCG | -1.08 ± 0.065 | -0.139 ± 0.13 |
| GUAGAGCAAUAUUACGUUGG | -2.16 ± 0.11 | -2.04 ± 0.15 |
| GUAUAGCAAUAUUACGAGAC | -1.38 ± 0.4 | -1.24 ± 0.47 |
| GUAUAGCAAUAUUACGAGCG | -1.98 ± 0.16 | -1.39 ± 0.14 |
| GUAUAGCAAUAUUACGAUAG | -1.67 ± 0.099 | -0.533 ± 0.1 |
| GUAUAGCAAUAUUACGAUUG | -3.48 ± 0.42 | -1.67 ± 0.3 |
| GUAUAGCAAUAUUACGCCAG | -3.17 ± 0.33 | -1.26 ± 0.29 |
| GUAUAGCAAUAUUACGCUAU | -3.33 ± 0.33 | -1.23 ± 0.28 |
| GUAUAGCAAUAUUACGGAGA | – | -2.57 ± 0.45 |
| GUAUAGCAAUAUUACGGCCC | – | -0.246 ± 0.44 |
| GUAUAGCAAUAUUACGGGAG | – | -1.77 ± 0.35 |
| GUAUAGCAAUAUUACGGGCA | -1.34 ± 0.24 | -1.35 ± 0.25 |
| GUAUAGCAAUAUUACGGGGA | -2.52 ± 0.22 | -2.83 ± 0.38 |
| GUAUAGCAAUAUUACGGUCA | -1.5 ± 0.2 | -0.663 ± 0.18 |
| GUAUAGCAAUAUUACGGUUA | -1.28 ± 0.11 | -0.761 ± 0.098 |
| GUAUAGCAAUAUUACGGUUC | -1.22 ± 0.1 | -0.0871 ± 0.12 |
| GUAUAGCAAUAUUACGGUUU | -0.844 ± 0.089 | -1.29 ± 0.16 |
| GUAUAGCAAUAUUACGUAAC | -1.95 ± 0.36 | -1.98 ± 0.32 |
| GUAUAGCAAUAUUACGUCAA | -2.37 ± 0.37 | -2.86 ± 0.32 |
| GUAUAGCAAUAUUACGUCGC | -3.04 ± 0.25 | -1.65 ± 0.2 |
| GUAUAGCAAUAUUACGUCGU | -2.22 ± 0.12 | -0.949 ± 0.13 |
| GUAUAGCAAUAUUACGUUGG | -3.33 ± 0.31 | -1.12 ± 0.26 |

| Sequence | self-splicing fitness (ln) (30 °C) | self-splicing fitness (ln) (37 °C) |
| --- | --- | --- |
| GUAUAGCAAUAUUACGUUGU | -2.78 ± 0.26 | -1.72 ± 0.23 |
| GUAUAGCAAUAUUACGUUUC | -3.37 ± 0.25 | -2.36 ± 0.33 |
| GUAUAGCAAUAUUACGUUUG | -4.31 ± 0.46 | -2.11 ± 0.2 |
| GUCAAGCAAUAUUACGACCG | -3.14 ± 0.42 | – |
| GUCAAGCAAUAUUACGAGGA | -3.75 ± 0.47 | -4.45 ± 0.45 |
| GUCAAGCAAUAUUACGAUAA | -1.8 ± 0.14 | -1.58 ± 0.15 |
| GUCAAGCAAUAUUACGAUGA | -2.41 ± 0.17 | -1.1 ± 0.11 |
| GUCAAGCAAUAUUACGAUGC | -1.3 ± 0.098 | -0.442 ± 0.11 |
| GUCAAGCAAUAUUACGCAAG | -3.29 ± 0.18 | -2.48 ± 0.18 |
| GUCAAGCAAUAUUACGCACU | -1.71 ± 0.062 | -0.433 ± 0.072 |
| GUCAAGCAAUAUUACGCCUU | -1.61 ± 0.068 | -0.671 ± 0.097 |
| GUCAAGCAAUAUUACGCGAG | -1.83 ± 0.11 | -1.36 ± 0.12 |
| GUCAAGCAAUAUUACGCUCU | -1.58 ± 0.14 | -1.18 ± 0.14 |
| GUCAAGCAAUAUUACGGACU | -4.38 ± 0.39 | -2.72 ± 0.26 |
| GUCAAGCAAUAUUACGGAGC | -2.47 ± 0.46 | – |
| GUCAAGCAAUAUUACGGCAA | -2.06 ± 0.15 | -1.01 ± 0.094 |
| GUCAAGCAAUAUUACGGCGA | -2.1 ± 0.14 | -0.0443 ± 0.12 |
| GUCAAGCAAUAUUACGGUAU | -1.54 ± 0.075 | -0.662 ± 0.085 |
| GUCAAGCAAUAUUACGUGCC | -4.07 ± 0.2 | -2.73 ± 0.19 |
| GUCAAGCAAUAUUACGUGCU | -3.07 ± 0.13 | -2.7 ± 0.23 |
| GUCAAGCAAUAUUACGUGUU | -2.85 ± 0.089 | -1.35 ± 0.089 |
| GUCCAGCAAUAUUACGAAAA | -1.1 ± 0.2 | -0.701 ± 0.13 |
| GUCCAGCAAUAUUACGAAUU | -0.818 ± 0.078 | 0.257 ± 0.097 |
